Test results taken from patent publication US12258384B2, “Fusion albumin nanoparticle and application thereof” (Jiangnan University, priority 2019, dated 2025).

Tests used:
[1] = Loading of paclitaxel with recombinant fusion protein (pH response self-assembly), drug loading rate; type: physicochemical; settings: 1 mg/ml protein, mixed at pH 5.5 with 10 mg/mL paclitaxel solution, then pH 7.4
Experimental: Albumin fusion protein powder freeze-dried by a freeze dryer was dissolved in a PBS buffer solution to prepare a 1 mg/ml solution, the pH was adjusted to 5.5 with a 1 mM HCl solution, after a 10 mg/mL paclitaxel solution was added, the pH was adjusted to 7.4 with a 1 mM NaOH solution, centrifugation was performed at 10000 rpm for 20 minutes, an obtained precipitate was uniformly mixed with ultrapure water and then centrifuged at 1000 rpm for 20 minutes, and the steps above were repeated 3 times to obtain a paclitaxel-loaded fusion protein nanoparticle.
A final drug loading rate was directly affected by a mixing ratio of albumin to a drug (for example, paclitaxel): Fusion albumin powder freeze-dried by a freeze dryer was dissolved in a PBS buffer solution to prepare a 1 mg/ml solution, the pH was adjusted to 5.5 with a 1 mM HCl solution, after a drug solution with a concentration of 5 mg/ml, 8 mg/ml, 12 mg/mL and 15 mg/ml was separately added, the pH was adjusted to 7.4 with a 1 mM NaOH solution, centrifugation was performed at 10000 rpm for 20 minutes, an obtained precipitate was uniformly mixed with ultrapure water and then centrifuged at 1000 rpm for 20 minutes, and the steps above were repeated 3 times to obtain a paclitaxel-loaded fusion protein nanoparticle. […]

[2] = Loading of docetaxel with recombinant fusion protein, drug loading rate; type: physicochemical; settings: 1 mg/mL protein, mixed at pH 5.5 with 10 mg/ml docetaxel solution, then pH 7.4
Experimental: Albumin fusion protein powder freeze-dried by a freeze dryer was dissolved in a PBS buffer solution to prepare a 1 mg/mL solution, the pH was adjusted to 5.5 with a 1 mM HCl solution, after a 10 mg/ml docetaxel solution was added, the pH was adjusted to 7.4 with a 1 mM NaOH solution, centrifugation was performed at 10000 rpm for 20 minutes, an obtained precipitate was uniformly mixed with ultrapure water and then centrifuged at 1000 rpm for 20 minutes, and the steps above were repeated 3 times to obtain a fusion protein nanoparticle.

RH: albumin fusion protein 3RGD-HSA, without His fusion
drug loading rate (paclitaxel) [1]: 6.38%
drug loading rate (docetaxel) [2]: 7.08%
